{
  "source": "IntAct's records for PubMed 18020948",
  "parents": {"B1": {"name": "Integrin alpha-L (Homo sapiens), P20701 (parent)", "chain": "MKDSCITVMAMALLSGFFFFAPASSYNLDVRGARSFSPPRAGRHFGYRVLQVGNGVIVGAPGEGNSTGSLYQCQSGTGHCLPVTLRGSNYTSKYLGMTLATDPTDGSILACDPGLSRTCDQNTYLSGLCYLFRQNLQGPMLQGRPGFQECIKGNVDLVFLFDGSMSLQPDEFQKILDFMKDVMKKLSNTSYQFAAVQFSTSYKTEFDFSDYVKRKDPDALLKHVKHMLLLTNTFGAINYVATEVFREELGARPDATKVLIIITDGEATDSGNIDAAKDIIRYIIGIGKHFQTKESQETLHKFASKPASEFVKILDTFEKLKDLFTELQKKIYVIEGTSKQDLTSFNMELSSSGISADLSRGHAVVGAVGAKDWAGGFLDLKADLQDDTFIGNEPLTPEVRAGYLGYTVTWLPSRQKTSLLASGAPRYQHMGRVLLFQEPQGGGHWSQVQTIHGTQIGSYFGGELCGVDVDQDGETELLLIGAPLFYGEQRGGRVFIYQRRQLGFEEVSELQGDPGYPLGRFGEAITALTDINGDGLVDVAVGAPLEEQGAVYIFNGRHGGLSPQPSQRIEGTQVLSGIQWFGRSIHGVKDLEGDGLADVAVGAESQMIVLSSRPVVDMVTLMSFSPAEIPVHEVECSYSTSNKMKEGVNITICFQIKSLIPQFQGRLVANLTYTLQLDGHRTRRRGLFPGGRHELRRNIAVTTSMSCTDFSFHFPVCVQDLISPINVSLNFSLWEEEGTPRDQRAQGKDIPPILRPSLHSETWEIPFEKNCGEDKKCEANLRVSFSPARSRALRLTAFASLSVELSLSNLEEDAYWVQLDLHFPPGLSFRKVEMLKPHSQIPVSCEELPEESRLLSRALSCNVSSPIFKAGHSVALQMMFNTLVNSSWGDSVELHANVTCNNEDSDLLEDNSATTIIPILYPINILIQDQEDSTLYVSFTPKGPKIHQVKHMYQVRIQPSIHDHNIPTLEAVVGVPQPPSEGPITHQWSVQMEPPVPCHYEDLERLPDAAEPCLPGALFRCPVVFRQEILVQVIGTLELVGEIEASSMFSLCSSLSISFNSSKHFHLYGSNASLAQVVMKVDVVYEKQMLYLYVLSGIGGLLLLLLIFIVLYKVGFFKRNLKEKMEAGRGVPNGIPAEDSEQLASGQEAGDPGCLKPLHEKDSESGGGKD", "partner": "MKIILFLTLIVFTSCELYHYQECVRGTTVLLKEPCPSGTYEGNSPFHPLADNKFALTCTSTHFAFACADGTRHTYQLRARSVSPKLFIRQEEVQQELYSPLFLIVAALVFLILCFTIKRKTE"}},
  "data": [
    {"variants_of": "B1", "conditions": "with ns7a_sars ns7a", "values": [
      {"variant": "K288C;K293C", "effect of a mutation on the interaction": "increasing interaction strength"}
    ]}
  ]
}
